One block for each binder: values may come before it.
Experiments:
[1] = target: importin subunit α-3 (KPNA4) ARM domain (human); assay: fluorescence polarisation; displacement as a1, with a FITC-labelled probe sampling the minor pocket of the KPNA4 ARM domain
[2] = target: importin subunit α-3 (KPNA4) ARM domain (human); assay: fluorescence polarisation; displacement as a1, with a FITC-labelled probe sampling the major pocket of the ARM domain (KPNA4, KPNA7)
USP7 MATH/ TRAF (human) = assay: fluorescence polarisation; displacement: unlabelled peptide titrated onto a complex of FITC-labelled peptide (10 nM) and protein domain (1-2x KD); 50 mM sodium phosphate buffer pH 7.4 (CASK: plus 100 mM NaCl); KD calculated from IC50; technical triplets
[3] = target: E3 ubiquitin-protein ligase NEDD4 (NEDD4) WW2 domain, GST-tagged (human); assay: as above
E3 ubiquitin-protein ligase NEDD4 (NEDD4) WW2 domain, GST-tagged (human), sequence (P46934 whole entry, the tested form may be a part): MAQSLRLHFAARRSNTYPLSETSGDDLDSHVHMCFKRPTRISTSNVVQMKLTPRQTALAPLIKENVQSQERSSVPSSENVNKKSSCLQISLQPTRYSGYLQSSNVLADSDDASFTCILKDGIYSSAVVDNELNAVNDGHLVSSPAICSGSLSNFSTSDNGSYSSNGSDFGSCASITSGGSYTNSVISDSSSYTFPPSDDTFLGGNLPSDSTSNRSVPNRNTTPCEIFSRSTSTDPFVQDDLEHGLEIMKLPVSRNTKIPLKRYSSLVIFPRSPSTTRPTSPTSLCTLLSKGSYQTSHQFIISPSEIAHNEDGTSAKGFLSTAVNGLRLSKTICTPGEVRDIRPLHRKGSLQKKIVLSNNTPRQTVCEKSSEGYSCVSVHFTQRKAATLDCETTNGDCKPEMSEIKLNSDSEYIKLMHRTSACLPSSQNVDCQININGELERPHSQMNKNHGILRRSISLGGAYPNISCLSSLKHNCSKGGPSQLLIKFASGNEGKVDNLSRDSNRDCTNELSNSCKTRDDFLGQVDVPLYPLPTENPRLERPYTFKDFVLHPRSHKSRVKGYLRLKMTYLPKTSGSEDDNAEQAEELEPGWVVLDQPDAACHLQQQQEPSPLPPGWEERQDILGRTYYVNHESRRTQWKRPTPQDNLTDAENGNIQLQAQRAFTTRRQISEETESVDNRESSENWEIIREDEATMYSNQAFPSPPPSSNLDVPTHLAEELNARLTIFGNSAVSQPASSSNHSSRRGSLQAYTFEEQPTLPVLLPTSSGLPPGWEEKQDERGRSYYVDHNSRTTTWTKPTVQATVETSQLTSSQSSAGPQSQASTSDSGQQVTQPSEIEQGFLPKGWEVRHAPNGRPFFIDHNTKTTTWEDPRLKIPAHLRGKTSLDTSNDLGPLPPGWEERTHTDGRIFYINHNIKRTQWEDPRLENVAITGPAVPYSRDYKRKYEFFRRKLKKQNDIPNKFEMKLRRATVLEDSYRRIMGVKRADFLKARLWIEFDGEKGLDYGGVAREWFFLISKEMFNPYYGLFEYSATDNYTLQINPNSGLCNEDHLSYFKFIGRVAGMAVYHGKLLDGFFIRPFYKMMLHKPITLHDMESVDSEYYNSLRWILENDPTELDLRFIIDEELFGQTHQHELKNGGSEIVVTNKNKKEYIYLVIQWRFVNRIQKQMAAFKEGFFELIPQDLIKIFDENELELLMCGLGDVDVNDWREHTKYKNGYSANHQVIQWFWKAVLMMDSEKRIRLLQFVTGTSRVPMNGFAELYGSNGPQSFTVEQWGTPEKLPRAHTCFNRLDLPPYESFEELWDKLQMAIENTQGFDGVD

GABARAPL1 ATG8 (human) = assay: as above
FITC-STK11_mut = assay: fluorescence polarisation; saturation binding: dilution series of the protein domain added to 10 nM FITC-labelled peptide; 50 mM sodium phosphate pH 7.4, 0.05% Tween (protein dialysed in 50 mM sodium phosphate with 1 mM DTT; CASK kinase domain with 100 mM NaCl in addition); quadratic fit; technical triplets
MAP1LC3A ATG8 (human) = assay: fluorescence polarisation; displacement: unlabelled peptide titrated onto a complex of FITC-labelled peptide (10 nM) and protein domain (1-2x KD); 50 mM sodium phosphate buffer pH 7.4 (CASK: plus 100 mM NaCl); KD calculated from IC50; technical triplets

importin subunit α-3 (KPNA4) ARM domain (human), sequence (O00629 whole entry, the tested form may be a part): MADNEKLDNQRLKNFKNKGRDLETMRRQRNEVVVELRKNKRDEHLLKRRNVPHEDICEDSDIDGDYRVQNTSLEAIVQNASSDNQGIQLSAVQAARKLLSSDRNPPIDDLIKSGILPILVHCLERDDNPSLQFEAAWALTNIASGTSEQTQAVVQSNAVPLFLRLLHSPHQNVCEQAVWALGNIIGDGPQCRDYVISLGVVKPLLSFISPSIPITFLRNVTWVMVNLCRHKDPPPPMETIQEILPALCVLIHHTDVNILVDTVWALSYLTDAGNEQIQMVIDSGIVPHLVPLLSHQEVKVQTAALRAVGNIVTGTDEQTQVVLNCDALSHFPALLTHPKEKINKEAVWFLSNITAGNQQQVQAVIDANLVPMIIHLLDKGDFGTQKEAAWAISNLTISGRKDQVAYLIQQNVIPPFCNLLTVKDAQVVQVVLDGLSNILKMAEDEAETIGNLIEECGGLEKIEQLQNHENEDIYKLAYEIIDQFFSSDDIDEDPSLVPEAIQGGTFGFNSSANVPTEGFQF

Binder: YLLDGPPNPERAKLSS [CREBBP 5-19 K13E peptide]
KD, major pocket [2]: 860 µM

Binder: DKDEWQFLDQNEDAFE [BUB1_(486-501) S492F peptide]
Kd (GABARAPL1 ATG8 (human)): < 0.3 µM

Binder: YISSSSTSTMPNSSQSS [CHK2 38-53 wild-type peptide]
Kd (USP7 MATH/ TRAF (human)): 3.1 µM

Binder: PIPGTRPPNYDSLRLQ [SCNN1B_(611-626) P616R peptide]
Kd [3]: 80 µM

Binder: QTKWELLQQVDTSTRT [KRT1 209-224 wild-type peptide]
Kd (MAP1LC3A ATG8 (human)): 55 µM

The remaining lines, values ahead:

KD, minor pocket [1]: 395 µM
Binder: PELWVAHRTAQHLSAT [ZNF526_(152-167) K160T peptide]

Kd (USP7 MATH/ TRAF (human)): 4.7 µM
Binder: YISSSSTSTMPNSSKSS [CHK2 38-53 Q51K peptide]

Kd [3]: 603 µM
Binder: PIPGTPPRNYDSLRLQ [SCNN1B_(611-626) P618R peptide]

Kd [3]: 39 µM
Binder: PIPGTPPPNYDSLRLQ [SCNN1B_(611-626) wild-type peptide]

Kd (FITC-STK11_mut): 14.1 µM
B1: ADP-ribosylation factor-binding protein GGA1 (GGA1) VHS domain (domain or fragment)
chain: ATNPLNKELDWASINGFCEQLNEDFEGPPLATRLLAHKIQSPQEWEAIQALTVLETCMKSCGKRFHDEVGKFRFLNELIKVVSPKYLGSRTSEKVKNKILELLYSWTVGLPEEVKIAEAYQMLKKQGIVKS

Kd (GABARAPL1 ATG8 (human)): 5.5 µM
Binder: DKDEWQSLDQNEDAFE [BUB1_(486-501) wild-type peptide]

Kd (MAP1LC3A ATG8 (human)): 580 µM
Binder: QTKWEPLQQVDTSTRT [KRT1 209-224 L214P peptide]

From paper PMC11369174, “Proteome-scale characterisation of motif-based interactome rewiring by disease mutations” (Molecular Systems Biology, 2024)
